We go through 15 molecules from publication PMC10786891, “Massively parallel profiling of RNA-targeting CRISPR-Cas13d”.

Substitutions are numbered along the chain they refer to. Names and notes keep the numbering of the source.

To fix the notation:
T1: EsCas13d, nuclease-dead (Eubacterium siraeum, UniProt B0MS50, R295A;H300A;R849A;H854A)
T1 sequence: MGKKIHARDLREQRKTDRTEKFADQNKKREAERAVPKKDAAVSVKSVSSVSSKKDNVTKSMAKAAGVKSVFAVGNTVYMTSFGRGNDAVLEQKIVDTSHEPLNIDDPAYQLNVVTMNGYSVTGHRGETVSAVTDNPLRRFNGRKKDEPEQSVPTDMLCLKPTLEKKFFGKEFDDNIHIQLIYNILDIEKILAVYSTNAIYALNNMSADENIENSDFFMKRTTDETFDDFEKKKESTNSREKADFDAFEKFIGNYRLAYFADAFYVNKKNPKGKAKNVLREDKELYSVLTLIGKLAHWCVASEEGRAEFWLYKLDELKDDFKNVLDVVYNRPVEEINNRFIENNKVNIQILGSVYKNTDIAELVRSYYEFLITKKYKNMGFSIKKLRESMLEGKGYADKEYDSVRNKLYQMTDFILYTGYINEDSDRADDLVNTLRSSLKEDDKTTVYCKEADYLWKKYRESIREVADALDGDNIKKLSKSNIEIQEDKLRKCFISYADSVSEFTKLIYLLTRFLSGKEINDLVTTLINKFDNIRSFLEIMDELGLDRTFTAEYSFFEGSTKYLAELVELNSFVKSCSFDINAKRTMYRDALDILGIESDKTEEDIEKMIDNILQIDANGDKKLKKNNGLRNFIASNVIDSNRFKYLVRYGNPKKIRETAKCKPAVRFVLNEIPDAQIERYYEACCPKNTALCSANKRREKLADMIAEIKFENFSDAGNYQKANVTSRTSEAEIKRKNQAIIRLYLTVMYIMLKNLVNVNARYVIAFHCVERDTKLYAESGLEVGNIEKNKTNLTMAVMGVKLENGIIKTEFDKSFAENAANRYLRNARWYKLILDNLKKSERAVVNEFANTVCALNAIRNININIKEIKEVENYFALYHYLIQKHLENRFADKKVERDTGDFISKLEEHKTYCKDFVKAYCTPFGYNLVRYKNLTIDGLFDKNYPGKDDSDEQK

B1: target 1 A16G (mixed)
RNA 1: CACCCGUGCAAAAAUGCAGGGGUCUAAAACUGAGCGGAUAACCUCUCUAUGG
RNA 2: GGGAAUGGAUCCACAUCUACGAAUUCGUACCAUAGGGAGGUUAUCCGCUCACCGAGAUCGGAAGAGCACACGU
B2: target 1 MT 5'PFS UAG 3'PFS UUA (mixed)
RNA 1: B1 RNA 1
RNA 2: B1 RNA 2 with G27U, U28A, A29G, G36A, C52U, C53U, G54A
B3: target 1 insC 3' of 17,insA 3' of 5 (mixed)
RNA 1: B1 RNA 1
RNA 2: GGGAAUGGAUCCACAUCUACGAAUUCGUACCAUAGCAGAGGUUAUCCGACUCACCGAGAUCGGAAGAGCACACGU
B4: target 1 insC 3' of 16,insC 3' of 8 (mixed)
RNA 1: B1 RNA 1
RNA 2: B3 RNA 2 with C36A, A37C, G48C, A49G
B5: target 1 C6U,A18C (mixed)
RNA 1: B1 RNA 1
RNA 2: B1 RNA 2 with A34C, G36A, C46U
B6: target 1 A16C,A20U (mixed)
RNA 1: B1 RNA 1
RNA 2: B1 RNA 2 with A32U, G36C
B7: target 1 insA 3' of 8,insU 3' of 1 (mixed)
RNA 1: B1 RNA 1
RNA 2: GGGAAUGGAUCCACAUCUACGAAUUCGUACCAUAGAGAGGUUAUACCGCUCAUCCGAGAUCGGAAGAGCACACGU
B8: target 1 U8G,G12U (mixed)
RNA 1: B1 RNA 1
RNA 2: B1 RNA 2 with G36A, G40U, U44G
B9: target 1 insA 3' of 17,insA 3' of 3 (mixed)
RNA 1: B1 RNA 1
RNA 2: B3 RNA 2 with C36A, A49C, C50U, U51A
B10: target 1 MT 5'PFS GAA 3'PFS CAU (mixed)
RNA 1: B1 RNA 1
RNA 2: B1 RNA 2 with U28A, G36A, C53A, G54U
B11: target 1 insU 3' of 21,insA 3' of 6 (mixed)
RNA 1: B1 RNA 1
RNA 2: B3 RNA 2 with A32U, U33A, A34U, G35A, C36G, G48A, A49G
B12: target 1 insA 3' of 7,insC 3' of 3 (mixed)
RNA 1: B1 RNA 1
RNA 2: B7 RNA 2 with A45C, C46A, A52C, U53A
B13: target 1 insC 3' of 22,insG 3' of 4 (mixed)
RNA 1: B1 RNA 1
RNA 2: B3 RNA 2 with A32C, U33A, A34U, G35A, C36G, A49C, C50G
B14: target 1 MT 5'PFS UAG 3'PFS UUC (mixed)
RNA 1: B1 RNA 1
RNA 2: B1 RNA 2 with G27U, U28A, A29G, G36A, C52U, C53U, G54C
B15: target 1 insA 3' of 21,insA 3' of 21 (mixed)
RNA 1: B1 RNA 1
RNA 2: GGGAAUGGAUCCACAUCUACGAAUUCGUACCAAAUAGAGAGGUUAUCCGCUCACCGAGAUCGGAAGAGCACACGU

The data set has as its target T1, EsCas13d, nuclease-dead. In words: crRNA (strand 1, pre-loaded); Mg2+; 40 mM Tris-HCl pH 7.5, 150 mM NaCl, 6 mM MgCl2, 1 mM DTT, 0.1% Tween-20, 0.2 mg/ml BSA; 25 C; 10 min per concentration, then washed. As to conditions: tags: His6-TwinStrep-SUMO cleaved; N-terminal SNAP kept (SNAP-Surface 488); label: 3' end held by stalled T7 RNA polymerase.
Take B1: the Kd amounted to 29.4 ± 1.4 nM. Next, B2: 18.4 ± 3.7 nM. Next, B3: 23 ± 4 nM; B4: ~90 nM. Next, B5: 58 ± 7 nM; B6: 85 ± 29 nM. Molecule B7 registered a Kd of 12.9 ± 0.6 nM. This Kd is about 6.6-fold lower than that of the molecule before. B8: the Kd is 11.8 ± 1.3 nM. Molecule B9 had a Kd of 11.7 ± 0.4 nM. The figure for B10 is ~95 nM; for B11 it is 28.2 ± 2.3 nM; for B12 it is 6.32 ± 0.25 nM. Next, B13: 12.8 ± 1.1 nM; B14: 18.9 ± 3.85 nM; B15: 15.4 ± 0.8 nM.
